Test results from publication PMC12752688.
pKd: −log10 of the molar value.

Assays:
[1] = target: Trigger factor (Escherichia coli) (UniProt P0A850); conditions: cited from earlier work
[2] = target: native 70S ribosome from E. coli (E. coli) (UniProt P0ADZ0); assay: high-speed AFM (HS-AFM); 70S ribosomes without nascent chain partially immobilised on mica, TF in the imaging solution at a molar ratio of 200:1 TF:ribosome; 1 frame/s, 22-25 °C
[3] = target: ribosome-nascent chain complex (not stated | E. coli) (UniProt P0ADZ0); assay: high-speed AFM (HS-AFM); RNC (2 nM) on mica, TF (1 uM) in the imaging solution, physiological buffer; 1 frame/s, 22-25 °C; dwell time analysis of single binding events
Trigger Factor = Trigger Factor (UniProt P0A850); assay: high-speed AFM (HS-AFM); TF alone at 5 uM on mica; projected area and height compared with monomers

Trigger Factor (from UniProt P0A850 1-432) (natural protein), sequence (P0A850 whole entry): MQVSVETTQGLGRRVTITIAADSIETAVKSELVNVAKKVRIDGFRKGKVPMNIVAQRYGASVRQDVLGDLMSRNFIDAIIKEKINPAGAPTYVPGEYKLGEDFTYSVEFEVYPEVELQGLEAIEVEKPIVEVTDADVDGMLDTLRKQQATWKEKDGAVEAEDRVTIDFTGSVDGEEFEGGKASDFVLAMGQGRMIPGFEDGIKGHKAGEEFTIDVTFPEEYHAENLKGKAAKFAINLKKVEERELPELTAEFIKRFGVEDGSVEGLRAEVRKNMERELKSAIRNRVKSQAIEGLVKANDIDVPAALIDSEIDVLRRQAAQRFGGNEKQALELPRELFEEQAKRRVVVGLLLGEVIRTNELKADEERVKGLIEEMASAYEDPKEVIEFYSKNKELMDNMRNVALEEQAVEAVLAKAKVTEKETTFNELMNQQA
Trigger factor, sequence (P0A850 whole entry): as above

duration of association [2] | duration of association [3] | duration of individual binding events [3] | longest interaction time (exit-tunnel site) [3] | longest interaction time (peripheral site) [3] | mean interaction time (exit-tunnel site) [3] | mean interaction time (peripheral site) [3] | stoichiometry N [3] | stoichiometry N (Trigger Factor) | Substance | pKd [1]
– | – | – | – | – | – | – | – | – | Trigger factor (from UniProt P0A850) | 5.82
< 5 s | > 5 s | > 30 s | < 80 s | > 30 s | 8 s | 3.9 s | 2 | 2 | Trigger Factor (from UniProt P0A850 1-432) (natural protein) | –
